Source: patent publication US20200199204A1 (UNITED STATES OF AMERICA AS REPRESENTED BY THE SECRETARY …, published 2020)

Assays:
Experiment in all cases: cell-based or functional assay
[1] = target: HIV-1 Env of CAP256.PI (HIV-1)
[2] = target: HIV-1 Env of CAP256.SU (HIV-1)
[3] = target: HIV-1 Env of 96ZM651.02 (HIV-1)
[4] = target: HIV-1 Env of CAP210.E8 (HIV-1)
[5] = target: HIV-1 Env of CAP244.D3 (HIV-1)
[6] = target: HIV-1 Env of CAP45.G3 (HIV-1)
[7] = target: HIV-1 Env of DU156.12 (HIV-1)
[8] = target: HIV-1 Env of DU172.17 (HIV-1)
[9] = target: HIV-1 Env of DU422.01 (HIV-1)
[10] = target: HIV-1 Env of ZM109.4 (HIV-1)
[11] = target: HIV-1 Env of ZM135.10a (HIV-1)
[12] = target: HIV-1 Env of ZM197.7 (HIV-1)
[13] = target: HIV-1 Env of ZM214.15 (HIV-1)
[14] = target: HIV-1 Env of ZM233.6 (HIV-1)
[15] = target: HIV-1 Env of ZM249.1 (HIV-1)
[16] = target: HIV-1 Env of ZM53.12 (HIV-1)
[17] = target: HIV-1 Env of 0260.v5.c36 (HIV-1)
[18] = target: HIV-1 Env of BG505.w6m (HIV-1)
[19] = target: HIV-1 Env of KER2008.12 (HIV-1)
[20] = target: HIV-1 Env of KER2018.11 (HIV-1)
[21] = target: HIV-1 Env of MB201 (HIV-1)
[22] = target: HIV-1 Env of MB539.2B7 (HIV-1)
[23] = target: HIV-1 Env of Q168.a2 (HIV-1)
[24] = target: HIV-1 Env of Q23.17 (HIV-1)
[25] = target: HIV-1 Env of Q259.d2.17 (HIV-1)
[26] = target: HIV-1 Env of Q461.e2 (HIV-1)
[27] = target: HIV-1 Env of Q769.d22 (HIV-1)
[28] = target: HIV-1 Env of Q842.d12 (HIV-1)
[29] = target: HIV-1 Env of RW020.2 (HIV-1)
[30] = target: HIV-1 Env of UG037.8 (HIV-1)
[31] = target: HIV-1 Env of 6535.3 (HIV-1)
[32] = target: HIV-1 Env of AC10.29 (HIV-1)
[33] = target: HIV-1 Env of CAAN.A2 (HIV-1)
[34] = target: HIV-1 Env of PVO.04 (HIV-1)
[35] = target: HIV-1 Env of QH0692.42 (HIV-1)
[36] = target: HIV-1 Env of REJO.67 (HIV-1)
[37] = target: HIV-1 Env of RHPA.7 (HIV-1)
[38] = target: HIV-1 Env of SC422.8 (HIV-1)
[39] = target: HIV-1 Env of THRO.18 (HIV-1)
[40] = target: HIV-1 Env of TRJO.58 (HIV-1)
[41] = target: HIV-1 Env of TRO.11 (HIV-1)
[42] = target: HIV-1 Env of WITO.33 (HIV-1)
[43] = target: HIV-1 Env of 191821.E6.1 (HIV-1)
[44] = target: HIV-1 Env of 3016.V5.c36 (HIV-1)
[45] = target: HIV-1 Env of 6405.v4.c34 (HIV-1)
[46] = target: HIV-1 Env of C1080.c3 (HIV-1)
[47] = target: HIV-1 Env of CM244.ec1 (HIV-1)
[48] = target: HIV-1 Env of CNE3 (HIV-1)
[49] = target: HIV-1 Env of TH976.17 (HIV-1)

B1: CAP256-VRC26.05 (antibody, V domains shown)
VH: EVQLVESGGGVVQPGRSLRLSCAASHFSLSSYGMHWVRQAPGKGLEWVTGISFAGTKTYYGDSVRGRFTVSRDISKNTLFLQMNSLRPDDTAMYYCARDQRYYECEEWASDYYDFGREQPCLDPRGVVGIFDLWGQGTMVTVSS
VL: QSALTQPPSVSAAPGQKVTISCSGNIGNNYVSWYQQVPGTAPKLLIYENNKRPSGIPDRFSGSKSGTSATLVITGLQTGDEADFYCGTWGGSLRTGGVLGTGTRVTVLG
- neutralization IC50 [1]: > 50 µg/mL
- neutralization IC50 [2]: 0.007 µg/mL
- neutralization IC50 [3]: > 50 µg/mL
- neutralization IC50 [4]: 0.013 µg/mL
- neutralization IC50 [5]: > 50 µg/mL
- neutralization IC50 [6]: > 50 µg/mL
- neutralization IC50 [7]: > 50 µg/mL
- neutralization IC50 [8]: > 50 µg/mL
- neutralization IC50 [9]: > 50 µg/mL
- neutralization IC50 [10]: 26.5 µg/mL
- neutralization IC50 [11]: > 50 µg/mL
- neutralization IC50 [12]: 0.113 µg/mL
- neutralization IC50 [13]: > 50 µg/mL
- neutralization IC50 [14]: 0.003 µg/mL
- neutralization IC50 [15]: > 50 µg/mL
- neutralization IC50 [16]: 0.012 µg/mL
- neutralization IC50 [17]: > 50 µg/mL
- neutralization IC50 [18]: > 50 µg/mL
- neutralization IC50 [19]: > 50 µg/mL
- neutralization IC50 [20]: 0.012 µg/mL
- neutralization IC50 [21]: > 50 µg/mL
- neutralization IC50 [22]: > 50 µg/mL
- neutralization IC50 [23]: > 50 µg/mL
- neutralization IC50 [24]: > 50 µg/mL
- neutralization IC50 [25]: 0.023 µg/mL
- neutralization IC50 [26]: > 50 µg/mL
- neutralization IC50 [27]: > 50 µg/mL
- neutralization IC50 [28]: > 50 µg/mL
- neutralization IC50 [29]: > 50 µg/mL
- neutralization IC50 [30]: > 50 µg/mL
- neutralization IC50 [31]: > 50 µg/mL
- neutralization IC50 [32]: > 50 µg/mL
- neutralization IC50 [33]: > 50 µg/mL
- neutralization IC50 [34]: 44.4 µg/mL
- neutralization IC50 [35]: > 50 µg/mL
- neutralization IC50 [36]: > 50 µg/mL
- neutralization IC50 [37]: > 50 µg/mL
- neutralization IC50 [38]: > 50 µg/mL
- neutralization IC50 [39]: > 50 µg/mL
- neutralization IC50 [40]: > 50 µg/mL
- neutralization IC50 [41]: > 50 µg/mL
- neutralization IC50 [42]: > 50 µg/mL
- neutralization IC50 [43]: > 50 µg/mL
- neutralization IC50 [44]: 0.011 µg/mL
- neutralization IC50 [45]: > 50 µg/mL
- neutralization IC50 [46]: > 50 µg/mL
- neutralization IC50 [47]: 0.517 µg/mL
- neutralization IC50 [48]: > 50 µg/mL
- neutralization IC50 [49]: > 50 µg/mL

B2: CAP256-VRC26.12 (antibody, V domains shown)
VH: EVQLVQSGGGVVQPGRSLRLSCAAPYFEFGRYGFHWVRQAPGKGLEWVASISFAGRDYYHSPSVWGRFTISRDNSKNTLYLQMNSLRIEDTALYFCARDLRESECEEWESDYYDFGKKGPCVKPRGVAGGLDLWGQGTMVIVSS
VL: QSVLTQPPSVSTAPGQTVTVSCSGGTSNTGNNFVSWYQHLPGTAPKLLIYENNKRPLGVPDRFSGAKSGTSATLAITGLQTGDEGDYYCATWSGSLNIGTGTKVSVLG
- neutralization IC50 [1]: > 50 µg/mL
- neutralization IC50 [2]: 0.032 µg/mL
- neutralization IC50 [3]: > 50 µg/mL
- neutralization IC50 [4]: 0.072 µg/mL
- neutralization IC50 [5]: > 50 µg/mL
- neutralization IC50 [6]: > 50 µg/mL
- neutralization IC50 [7]: > 50 µg/mL
- neutralization IC50 [8]: > 50 µg/mL
- neutralization IC50 [9]: > 50 µg/mL
- neutralization IC50 [10]: > 50 µg/mL
- neutralization IC50 [11]: > 50 µg/mL
- neutralization IC50 [12]: > 50 µg/mL
- neutralization IC50 [13]: > 50 µg/mL
- neutralization IC50 [14]: > 50 µg/mL
- neutralization IC50 [15]: > 50 µg/mL
- neutralization IC50 [16]: 0.211 µg/mL
- neutralization IC50 [17]: > 50 µg/mL
- neutralization IC50 [18]: > 50 µg/mL
- neutralization IC50 [19]: > 50 µg/mL
- neutralization IC50 [20]: > 50 µg/mL
- neutralization IC50 [21]: > 50 µg/mL
- neutralization IC50 [22]: > 50 µg/mL
- neutralization IC50 [23]: > 50 µg/mL
- neutralization IC50 [24]: > 50 µg/mL
- neutralization IC50 [25]: > 50 µg/mL
- neutralization IC50 [26]: > 50 µg/mL
- neutralization IC50 [27]: > 50 µg/mL
- neutralization IC50 [28]: > 50 µg/mL
- neutralization IC50 [29]: > 50 µg/mL
- neutralization IC50 [30]: > 50 µg/mL
- neutralization IC50 [31]: > 50 µg/mL
- neutralization IC50 [32]: > 50 µg/mL
- neutralization IC50 [33]: > 50 µg/mL
- neutralization IC50 [34]: > 50 µg/mL
- neutralization IC50 [35]: > 50 µg/mL
- neutralization IC50 [36]: > 50 µg/mL
- neutralization IC50 [37]: > 50 µg/mL
- neutralization IC50 [38]: > 50 µg/mL
- neutralization IC50 [39]: > 50 µg/mL
- neutralization IC50 [40]: > 50 µg/mL
- neutralization IC50 [41]: > 50 µg/mL
- neutralization IC50 [42]: > 50 µg/mL
- neutralization IC50 [43]: > 50 µg/mL
- neutralization IC50 [44]: 7.93 µg/mL
- neutralization IC50 [45]: > 50 µg/mL
- neutralization IC50 [46]: > 50 µg/mL
- neutralization IC50 [47]: > 50 µg/mL
